# Paper PMC2139813 (The Journal of Cell Biology, 1997)
# B1: human moesin N-ERMAD (amino acids 1–296) (domain or fragment, UniProt P26038 1-296, looked up)
# chain: MPKTISVRVTTMDAELEFAIQPNTTGKQLFDQVVKTIGLREVWFFGLQYQDTKGFSTWLKLNKKVTAQDVRKESPLLFKFRAKFYPEDVSEELIQDITQRLFFLQVKEGILNDDIYCPPETAVLLASYAVQSKYGDFNKEVHKSGYLAGDKLLPQRVLEQHKLNKDQWEERIQVWHEEHRGMLREDAVLEYLKIAQDLEMYGVNYFSIKNKKGSELWLGVDALGLNIYEQNDRLTPKIGFPWSEIRNISFNDKKFVIKPIDKKAPDFVFYAPRLRINKRILALCMGNHELYMRRRK
# modifications: biotin (only where used as probe in blot overlays; site not stated)
# Target: human placental moesin (human, UniProt P26038 1-577)
# Assay: far-Western, overlay or dot blot
binder,measurement,value
B1,binding result,binds
